Patent publication US20250243281A1 (IMMUNITAS THERAPEUTICS, published 2025)
Where two headings read alike, the source gives them in different places.

T1: hCLEC2D (human, UniProt Q9UHP7 1-191)
T1 construct: Overexpressed on HEK293 or K562 cells; the same id is used for endogenous CLEC2D on NALM6 and Raji cells; also called LLT1
T1 sequence: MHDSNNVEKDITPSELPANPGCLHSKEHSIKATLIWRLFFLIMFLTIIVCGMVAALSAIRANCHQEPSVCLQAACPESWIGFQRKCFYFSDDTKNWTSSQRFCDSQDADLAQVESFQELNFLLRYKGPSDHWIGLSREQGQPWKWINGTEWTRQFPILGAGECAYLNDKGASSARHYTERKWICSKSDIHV

T2: hCLEC12B (human, UniProt Q2HXU8 1-276)
T2 construct: Overexpressed on HEK293 cells
T2 sequence: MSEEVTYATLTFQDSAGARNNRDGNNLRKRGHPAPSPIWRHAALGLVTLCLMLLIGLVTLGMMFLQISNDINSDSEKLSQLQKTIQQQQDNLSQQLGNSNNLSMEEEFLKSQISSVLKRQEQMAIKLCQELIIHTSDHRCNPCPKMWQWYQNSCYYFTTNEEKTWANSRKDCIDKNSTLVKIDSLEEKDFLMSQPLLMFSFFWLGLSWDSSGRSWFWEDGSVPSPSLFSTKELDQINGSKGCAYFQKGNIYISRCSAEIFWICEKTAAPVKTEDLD

T3: hKLRF1 (human, UniProt Q9NZS2 1-231)
T3 construct: Overexpressed on HEK293 cells
T3 sequence: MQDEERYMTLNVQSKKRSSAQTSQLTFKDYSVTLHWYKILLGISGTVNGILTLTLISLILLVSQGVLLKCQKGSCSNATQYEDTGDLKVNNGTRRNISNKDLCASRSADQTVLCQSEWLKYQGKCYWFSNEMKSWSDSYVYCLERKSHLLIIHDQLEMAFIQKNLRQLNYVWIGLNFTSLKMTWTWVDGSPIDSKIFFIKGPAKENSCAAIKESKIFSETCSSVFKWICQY

T4: hKLRF2 (human, UniProt D3W0D1 1-207)
T4 construct: Overexpressed on HEK293 cells
T4 sequence: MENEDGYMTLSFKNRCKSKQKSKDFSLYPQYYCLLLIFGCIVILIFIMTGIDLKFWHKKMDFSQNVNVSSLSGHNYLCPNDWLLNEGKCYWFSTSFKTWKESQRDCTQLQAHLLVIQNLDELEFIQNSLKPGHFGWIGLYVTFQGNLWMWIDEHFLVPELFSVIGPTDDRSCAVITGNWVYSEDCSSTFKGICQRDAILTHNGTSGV


Key:
hCLEC2D [1] = target: T1, hCLEC2D; assay: flow cytometry, HEK293 transfectants, 100 nM antibody;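 also: antibody applied at a saturating level and incubated with cells for 30 min at room temperature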
Method: (§1) For the antibody binding assay, all cell lines were washed in phosphate-buffered saline with 0.1% bovine serum albumin (PBSA) and seeded in a 96 well plate at a density of 4×10⁴ cells per well. Washed cells were resuspended in 100 nM of antibody (a saturating concentration to measure maximum binding on cells) and incubated at room temperature for 30 minutes. […] Cells were analyzed by flow cytometry with a Thermo Fisher Attune flow cytometer.
(§2) Data were analyzed using FlowJo software. MFI for each sample was calculated and exported into Graphpad Prism.

hCLEC12B [2] = target: T2, hCLEC12B; assay: as above
Method: as §1, §2

hKLRF1 [3] = target: T3, hKLRF1; assay: as above
Method: as §1, §2

hKLRF2 [4] = target: T4, hKLRF2; assay: as above
Method: as §1, §2

hKLRF1 [5] = target: T3, hKLRF1; assay: flow cytometry; 100 nM antibody on HEK293 cells expressing KLRF1; Alexa Fluor 647 anti-human IgG; MFI
Method: as §1, §2

hKLRF2 [6] = target: T4, hKLRF2; assay: flow cytometry; 100 nM antibody on HEK293 cells expressing KLRF2; Alexa Fluor 647 anti-human IgG; MFI
Method: as §1, §2

hCLEC12B [7] = target: T2, hCLEC12B; assay: flow cytometry; 100 nM antibody on HEK293 cells expressing CLEC12B; Alexa Fluor 647 anti-human IgG; MFI
Method: as §1, §2

hCLEC2D [8] = target: T1, hCLEC2D; assay: flow cytometry; 100 nM antibody on HEK293 cells expressing CLEC2D; Alexa Fluor 647 anti-human IgG; MFI
Method: as §1, §2

hCLEC2D [9] = target: T1, hCLEC2D; assay: as above; remark: listed apart in the source
Method: as §1, §2

hKLRF1 [10] = target: T3, hKLRF1; assay: flow cytometry; 100 nM antibody on HEK293 cells expressing KLRF1; Alexa Fluor 647 anti-human IgG; MFI; remark: listed apart in the source
Method: as §1, §2

hKLRF2 [11] = target: T4, hKLRF2; assay: flow cytometry; 100 nM antibody on HEK293 cells expressing KLRF2; Alexa Fluor 647 anti-human IgG; MFI; remark: listed apart in the source
Method: as §1, §2

% of CD161 binding (hCLEC2D [1])	% of CD161 binding (hCLEC12B [2])	% of CD161 binding (hKLRF1 [3])	% of CD161 binding (hKLRF2 [4])	binding result (hKLRF1 [5])	binding result (hKLRF2 [6])	binding result (hCLEC12B [7])	binding result (hCLEC2D [8])	binding result (hCLEC2D [9])	binding result (hKLRF1 [10])	binding result (hKLRF2 [11])	Binder
0.865%	0.169%	0.121%	0.101%	no binding (tested: 100 nM)	no binding (tested: 100 nM)	no binding (tested: 100 nM)	no binding (tested: 100 nM)	–	–	–	Ab18 (antibody, human IgG1, V domains shown, IgG purified from yeast culture) VH: QVQLVESGGGLVKPGGSLRLSCAASGFTFSQYYMSWIRQAPGKGLEWVSYISPSGATIAYADSVKGRFTISRDNAKNSLYLQMNSLRAEDTAVYYCARSLMATGTHLYFDLWGRGTLVTVSS VL: DIQLTQSPSSVSASVGDRVTITCRASQGISSWLAWYQQKPGKAPKLLIYAAESLQSGVPSRFSGSGSGTDFTLTISSLQPEDFATYYCQQVTSQPPYTFGGGTKVEIK
1.02%	0.064%	0.09%	0.054%	no binding (tested: 100 nM)	no binding (tested: 100 nM)	no binding (tested: 100 nM)	no binding (tested: 100 nM)	–	–	–	Ab14 (antibody, human IgG1, V domains shown, IgG purified from yeast culture) VH: QVQLVESGGGLVKPGGSLRLSCAASGFTFGQYYMSWIRQAPGKGLEWVSYISPSGATIAYADSVKGRFTISRDNAKNSLYLQMNSLRAEDTAVYYCARSLMSTGTHLYFDLWGRGTLVTVSS VL: DIQLTQSPSSVSASVGDRVTITCRASQGISDWLAWYQQKPGKAPKLLIYAASSLQSGVPSRFSGSGSGTDFTLTISSLQPEDFATYYCQQVTSFPPYTFGGGTKVEIK
0.865%	0.088%	0.061%	0.048%	no binding (tested: 100 nM)	no binding (tested: 100 nM)	no binding (tested: 100 nM)	no binding (tested: 100 nM)	–	–	–	Ab16 (antibody, human IgG1, V domains shown, IgG purified from yeast culture) VH: QVQLVESGGGLVKPGGSLRLSCAASGFTFSDYYMSWIRQAPGKGLEWVSYISPSGATIAYADSVKGRFTISRDNSKNTLYLQMNSLRAEDTAVYYCARSLMATGTHLYFDLWGRGTLVTVSS VL: DIQLTQSPSSVSASVGDRVTITCRASQGISSWLAWYQQKPGKAPKLLIYAASGLQSGVPSRFSGSGSGTDFTLTISSLQPEDFATYYCQQSTSFPPYTFGGGTKVEIK
0.935%	0.071%	0.114%	0.067%	no binding (tested: 100 nM)	no binding (tested: 100 nM)	no binding (tested: 100 nM)	no binding (tested: 100 nM)	–	–	–	Ab15 (antibody, human IgG1, V domains shown, IgG purified from yeast culture) VH: QVQLVESGGGLVKPGGSLRLSCAASGFTFPQYYMSWIRQAPGKGLEWVSYISPSGATIYYADSVKGRFTISRDNAKNSLYLQMNSLRAEDTAVYYCARSLMSTGTHLYFDLWGRGTLVTVSS VL: DIQLTQSPSSVSASVGDRVTITCRASQGISSWLAWYQQKPGKAPKLLIYAASSLQSGVPSRFSGSGSGTDFTLTISSLQPEDFATYYCQQVTSTPPYTFGGGTKVEIK
0.907%	0.175%	0.106%	0.089%	no binding (tested: 100 nM)	no binding (tested: 100 nM)	no binding (tested: 100 nM)	no binding (tested: 100 nM)	–	–	–	Ab13 (antibody, human IgG1, V domains shown, IgG purified from yeast culture) VH: QVQLVESGGGLVKPGGSLRLSCAASGFTFANYYMSWIRQAPGKGLEWVSYISPSGATIAYADSVKGRFTISRDNAKNSLYLQMNSLRAEDTAVYYCARSLMATGTHLYFDLWGRGTLVTVSS VL: DIQLTQSPSSVSASVGDRVTITCRASSGISSWLAWYQQKPGKAPKLLIYAASELQSGVPSRFSGSGSGTDFTLTISSLQPEDFATYYCQQATSFPPYTFGGGTKVEIK
1.16%	0.061%	0.065%	0.055%	no binding (tested: 100 nM)	no binding (tested: 100 nM)	no binding (tested: 100 nM)	no binding (tested: 100 nM)	–	–	–	Ab12 (antibody, human IgG1, V domains shown, IgG purified from yeast culture) VH: QVQLVESGGGLVKPGGSLRLSCAASGFTFAQYYMSWIRQAPGKGLEWVSYISPSGSTIAYADSVKGRFTISRDNAKNSLYLQMNSLRAEDTAVYYCARSLMATGTHLYFDLWGRGTLVTVSS VL: DIQLTQSPSSVSASVGDRVTITCRASQDISSWLAWYQQKPGKAPKLLIYAASSLQSGVPSRFSGSGSGTDFTLTISSLQPEDFATYYCQQVTSFPPYTFGGGTKVEIK
0.832%	-0.042%	0.011%	-0.007%	–	–	–	–	no binding (tested: 100 nM)	no binding (tested: 100 nM)	–	Ab3 (antibody, human IgG1, V domains shown, IgG purified from yeast culture) VH: EVQLLESGGGLVQPGGSLRLSCAASGFTFERYAMSWVRQAPGKGLEWVSAISAAGGTTYYADSVKGRFTISRDNSKNTLYLQMNSLRAEDTAVYYCAKPLDSSQWADFDLWGRGTLVTVSS VL: DIQLTQSPSSVSASVGDRVTITCRASQDISSWLAWYQQKPGKAPKFLIYAASALQSGVPSRFSGSGSGTDFTLTISSLQPEDFATYYCQQALVLPITFGGGTKVEIK
0.935%	-0.004%	0.046%	0.004%	–	–	–	–	no binding (tested: 100 nM)	no binding (tested: 100 nM)	no binding (tested: 100 nM)	Ab10 (antibody, human IgG1, V domains shown, IgG purified from yeast culture) VH: EVQLLESGGGLVQPGGSLRLSCAASGFTFSQYAMSWVRQAPGKGLEWVSAISAVGGSTYYADSVKGRFTISRDNSKNTLYLQMNSLRAEDTAVYYCAKPLDSSQWADFDLWGRGTLVTVSS VL: DIQLTQSPSSVSASVGDRVTITCRASQDISSWLAWYQQKPGKAPKLLIYAASALQSGVPSRFSGSGSGTDFTLTISSLQPEDFATYYCQQADVLPITFGGGTKVEIK
0.785%	-0.003%	0.024%	0.021%	–	–	–	–	no binding (tested: 100 nM)	no binding (tested: 100 nM)	no binding (tested: 100 nM)	Ab11 (antibody, human IgG1, V domains shown, IgG purified from yeast culture) VH: EVQLLESGGGLVQPGGSLRLSCAASGFTFSQYAMSWVRQAPGKGLEWVSAISAAGGTTYYADSVKGRFTISRDNSKNTLYLQMNSLRAEDTAVYYCAKPLDSSQWADFDLWGRGTLVTVSS VL: DIQLTQSPSSVSASVGDRVTITCRASQGIYSWLAWYQQKPGKAPKLLIYAASSLQSGVPSRFSGSGSGTDFTLTISSLQPEDFATYYCQQASDLPITFGGGTKVEIK
